From patent publication US20040053368A1 (published 2004)

Target: T1, bovine serum albumin (BSA, Sigma) (bovine, UniProt P02769 25-607)
T1 construct: Control protein coated on the ELISA plate
Experiment: ELISA, serum albumin coated at 1 mg/ml, detected with anti-human FNCBD monoclonal antibody
Protocol: By the enzyme-linked immunosorbent assay (ELISA), binding ability of the FNCBD-bFGF and the FNCBD-EGF to bovine native collagen (I-AC, Koken), bovine atelocollagen (I-PC, Koken), and bovine serum albumin (BSA, Sigma) was evaluated.
First, 1 mg/ml solutions of native collagen, atelocollagen, and serum albumin were respectively dispensed in the wells of a flat-bottom 96-well ELISA plate at 200 μl/well, and the plate was allowed to stand overnight at 4° C.
The wells were washed three times with PBS containing 0.05% Tween 20, and 100 μl of anti-human FNCBD monoclonal antibody (Takara Shuzo) diluted 1:1000 was dispensed in the wells and allowed to stand at room temperature for 1 hour. The wells were washed three times with 0.05% Tween 20/PBS, and 100 μl of peroxidase-labelled anti-mouse immunoglobulin polyclonal antibody (Dako Japan) diluted 1:1000 was dispensed in the wells and allowed to stand at room temperature for 1 hour. After washing the wells 6 times with 0.05% Tween 20/PBS, 0.1M citrate buffer, pH 4.7 containing 1 mg/ml o-phenylenediamine and 0.03% hydrogen peroxide was dispensed in the wells and allowed to stand for 10 minutes. The reaction was then terminated by addition of 50 μl of 4N sulfuric acid and absorption at 492-690 nm was measured.

T1 sequence (P02769 25-607 limits assumed): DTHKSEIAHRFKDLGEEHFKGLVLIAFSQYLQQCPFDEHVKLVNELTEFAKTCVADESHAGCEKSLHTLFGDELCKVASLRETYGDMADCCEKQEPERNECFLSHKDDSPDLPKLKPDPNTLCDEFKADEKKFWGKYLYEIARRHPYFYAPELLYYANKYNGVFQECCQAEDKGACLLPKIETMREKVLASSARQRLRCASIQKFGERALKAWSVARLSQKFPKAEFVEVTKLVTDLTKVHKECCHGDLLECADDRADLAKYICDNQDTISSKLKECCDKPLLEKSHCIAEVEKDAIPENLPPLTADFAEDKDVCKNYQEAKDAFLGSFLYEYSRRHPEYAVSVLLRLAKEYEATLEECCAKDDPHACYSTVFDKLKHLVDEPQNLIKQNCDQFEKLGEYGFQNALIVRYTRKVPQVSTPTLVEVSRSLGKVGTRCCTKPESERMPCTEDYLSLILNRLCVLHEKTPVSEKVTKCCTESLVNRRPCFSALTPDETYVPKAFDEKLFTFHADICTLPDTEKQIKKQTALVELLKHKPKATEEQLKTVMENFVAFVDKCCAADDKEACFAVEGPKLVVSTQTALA

B1: human FNCBD/human EGF hybrid polypeptide (FNCBD-EGF) (other)
chain: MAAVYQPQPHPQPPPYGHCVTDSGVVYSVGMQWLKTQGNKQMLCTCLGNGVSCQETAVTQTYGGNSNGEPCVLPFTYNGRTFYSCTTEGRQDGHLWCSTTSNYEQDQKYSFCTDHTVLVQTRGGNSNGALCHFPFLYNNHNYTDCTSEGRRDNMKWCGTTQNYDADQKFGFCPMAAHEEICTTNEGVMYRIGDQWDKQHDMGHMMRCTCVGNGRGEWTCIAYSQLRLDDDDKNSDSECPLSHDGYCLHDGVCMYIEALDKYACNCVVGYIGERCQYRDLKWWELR
notes: also called FN484-EGF; FNCBD/EGF hybrid polypeptide
- binding result: no binding
